assay: soluble on expression in E. coli; label from the status in PepcDB or PDB records

| Sequence | soluble on expression in E. coli |
| --- | --- |
| MSLMSVVKVGVNGFGTIGRRVALAITLQKDMKLVGVVKRTPDYAALYAASRGIPIYTPTAKEAEEFEKRGIKVGGTLRELLARVDVVVDATPEGQGAKNKPLYREAGVKQVYQGGEKPEVAEASFSTLCNYEESKGRGSLRVVSCNTTGLLRLICTLNREFGVESVRAVLVRRGADPKEVKKGPIDSIVLNPPTLPSHHAVDVRTVLPWLDIKTAAVAVPTTFMHMHHVTLKLAKPVEKREVLETLASAPRIMLVSSGDTGIKSTSQLVDAARLSRMGYDIPELVVFEESVAVDGREVMLFQAVHQESIVVPENIDAIRAVASSPLTLDETLKATDGSLGLRKTLW | soluble |
| VLKQGYMMKKGHRRKNWTERWFVLKPNIISYYVSEDLKDKKGDILLDENCCVESLPDKDGKKCLFLVKCFDKTFEISASDKKKKQEWIQAIHSTIHLLKLGS | soluble |
| MIELDQTNIPKHVAIIMDGNGRWAKQKNKMRIFGHTNGVTAVRKAVAYARQIGVEVLTLYAFSSENWSRPEQEISALMSLFMQALDREVKKLHKNNICLKIIGDVSRFSETLQEKIKKAENLTEKNTALTLNIAANYGGCWDIIQAAKQIAEKVKKEEMSVSDINNSTFQHHLATQNAPPVDLLIRTSGEQRISNFLLWQIAYAELYFSDVLWPDFNQLEFNRAIASYQQRHRRFGGTE | not soluble |
| MALPRITQKEMTEREQRELKTLLDRARIAHGRVLTNSETNSIKKDYIDKLMVEREAEAKKARQLKKKQAYKPDPEASFSWSANTSTRGRR | soluble |
| MSLKTIVVKFGTSTLTQGSPKLNSPHMMEIVRQIAQLHNDGFRIVIVTSGAIAAGRHYLNHPQLPPTIASKQLLAAVGQSQLIQAWEKLFAIYDIHIGQLLLTRADIEDRERFLNARDTLYALLDNHIIPVINENDAVATAEIKVGDNDNLSALVAILVQAEQLYLLTDQQGLFDSDPRKNPEAKLIPVVEQITDHIRSIAGGSGTNLGTGGMMTKIIAADVATRSGIETIIAPGNRPNVIADLAYEQNIGTKFIAHQSDRLESRKQWLFAAPSAGIITIDNGAQNAILEQNKSLLPAGIINVEGRFSRGEVVKIRTQSGKDIALGMPRYNSDALQLIKGRKSADIENVLGYEYGAVAMHRDDMIILSEGHHHHHH | soluble |
| MSLKPTVWHHLRLCPHGHPDETIDDAAIAVDETGTIVWLGAVSALPHGYAHWRREDLHGAWVTPGLVDCHTHLVYGGTRADEFAQRLAGVSYEEIARQGGGIVSTVRATRAADETTLFVQAAARLQPLLAEGVTAIEIKSGYGLDLASERKMLRVARQLGERFPVTVYTTFLGAHALPPEYAGRADAYIDEVCDRMLPALADEGLVDAVDVFCERIGFSLAQTERVFEAATRRGLPVKLHAEQLSNAGGTALAARYRALSADHLEFLDEAGIEAMKAAGTVAVLLPGAYYFIRETQLPPIELLRKHGVPIALATDHNPGTSPLESLLLTLNMGCTLFRMTVPEVLQGVTCHAAAALGRADRHGALEVGRQADFAAWSVGSLAELAYWIGRPLCEQVVRGGTTVFRRMNGEGHHHHHH | soluble |
| MSLRDAKTWFTDTVLKDQNGRELRFYSDVLKDKVVMLNVIFTHCTDACPLITRKLREVREAMGPALAAQVTFVSISSDPLNDTPEALKAFAAKQGVDGPNWLFLTGDKANVDLVLGRIGQFLPSPEQHSTQLIAGDVAGKRWSKIRPDAPPAAIAQRMQLLTQPLAGREGHHHHHH | soluble |
| MAGDPMIIYRQYHHEGAPVYEIITKTFQHVSIKCDDSFSDTEIFKLLSLLQDDIDHMKVSLEHHHHHH | not soluble |
| MGSDKIHHHHHHMDNKTQEKADFTLANAYGGVEMVRADYKGQAFSKHVHEGYTIGVIEKGAQRFYRSGEIHTADTNSIILVNADDVHTGESASSGGWQYRAMYPLPEHFENISNDLYDKGKFAPYFGSSVINDPLLTDQLRLLFNQVDNNASQLLTETIMYSLMLRLTLRHSSLRHVPKDISGSKAKLLRVKEYLDSYPAEDISLKQLAIIAGLSQYHFIRQFKKMFDLAPHSYQIQARLKKAKTLLKAGVKPVMVASDCGFHDQSHFNRHFKKALGTSPSKFQKQAVLYKN | not soluble |
| MNKKKFENLPKWNNFALFNFLAKDKENSLEVMVAARGFAVPGIVATNYETAEEAANVVKELQTTAEVISVGLGGGGDWQNWRDVLHIARLAPNSHINQPIETAGLTNGLLPETYTNALVRPTGKVGIVKLSSGDEITAEEAVDYCLSANIPSIKFMSIEGTKYLDELVYLTKIAADKGIYGIEPAGGIGADNILEITTAIKSTGIPFYMPHIFGKTIDKATGRTKPEEIEKIFAALEGN | soluble |
| MSLKAIIYCRVSTEKTSQETSLARQKHELLTLANKHALEVVATLEERASGFSLDRPVLLECIDAFQRGQADILLCQDDTRLARGHSKIALLHQLRKLGVSIYTIRDQGELRLSEADEMVLDIVAIVEEYQRKLHNKKIKRGMKQAVKNGYRPERNIKQGVSGGRERKELPIKEIVRLRQKNLTFHEIALTLQGLGFNVSKATVHRRYQEYMDEQLHGEGHHHHHH | soluble |
| MGLSVVILAAGKGSRMNSNKPKVLQTLAAKTLIEHVVSSVEKLNPDNIVVVTGHLKEQVEDALQGRNITFVYQQQQLGTGHAVLQALPYLKEQKVLILYGDVPLISTEVLENLVDTTNDDDLGVLTAFVENPQGLGRIVRDKFGAVTEIVEEKDANDIQRQIKEINTGIYCVHKNLLQKWLPEIKANNVQKEYYLTDIITFAKADHVSINVTHPINEFEILGVNDRTQLASLERVWQRNVAEKIMAKGVSIADPNRFDVRGNLDVGKDCWIDINVIIKGNVKLGNNVVIGANCILKNCIIEDNVRIKSNSMVDGSIIREGAIVGPFARVRPECDVKEGAVIGNFVEAKKTILGKGSKASHLTYLGDSEIGANCNIGAGVITCNYDGVNKHKTVIGDYAFIGSDSQLIAPVNIGQGATVGAGSTIVKDVPADNLAISRARQRHIDTWQRSVKKTDK | not soluble |
| MKMINKLIVPVTASALLLGACGASATDSKENTLISSKAGDVTVADTMKKIGKDQIANASFTEMLNKILADKYKNKVNDKKIDEQIEKMQKQYGGKDKFEKALQQQGLTADKYKENLRTAAYHKELLSDKIKISDSEIKEDSKKASHILIKVKSKKSDKEGLDDKEAKQKAEEIQKEVSKDPSKFGEIAKKESMDTGSAKKDGELGYVLKGQTDKDFEKALFKLKDGEVSEVVKSSFGYHIIKADKPTDFNSEKQSLKEKLVDQKVQKNPKLLTDAYKDLLKEYDVDFKDRDIKSVVEDKILNPEKLKQGGAQGGQSGMSQ | soluble |
| MDEYQQTIRALSDRIVVAQTPIRILDAVKWDDTVRKNFLAAKGKALPAVDRAYYENRPLGFDSVALKQEFQNIERDVTRQLGQFNPVGQIMRRMCREYRMVVRMLEARGTPDFGLISQELYGAASDAFHAGDPTLADLGLMLSDYLNNIAGRGDLKDEPKILTAKDAVSLLQSRLNRVFGEAEETIRVFESDGIVADAAAGADYIKIRTDAMFNERDVRALEVHEGLVHVGTTLNGQNQPICTFLSKGPPSSTVTQEGLAILMEVIAFASYPSRLRKLTNRTRAIHMAEQGADFLQVFEFYREQGFGMSESYGNASRVFRGSVPDGLPFTKDLSYLKGFIMVYNYIQLAVRKGKLEQVPLLFCGKTTLEDMRTLRQLVDEGLVVAPKYLPEQFRDMNALSAWMCFSNFLNHLSLDRIEADYSNILLEHHHHHH | soluble |
| MGSDKIHHHHHHMTQTPKPPLTIYLAAPRGFCAGVDRAIKIVEMALEKWGAPVFVRHEIVHNKYVVDDLKAKGAVFVEELSDCPDDRPVIFSAHGVPKSVPQAAAARQMVYVDATCPLVSKVHIEAQRHSDNGLQMVMIGHKGHPETIGTMGQLPDGEVLLVETVEDVATVEVRDPSRLAFVTQTTLSVDDTIEIVEALTTRFPAIVGPHKEDICYATTNRQEAVKAMAPKAEAMLVVGAPNSSNSKRLVEVGSRAGCAYSQLVQRAADIDWRALGDIKTLGITAGASAPEVLIEEVIQAFEDRFDVTRELVETAVENVEFKVPRVLRETA | not soluble |
| MAGSDPAAPAAPAAAAPDTVKILIAGGFGVGKTTMVGSVSEIAPLRTEEPLTAAGLDVDDLDGIAEKDATTVALDFGRITIGSELVLYLFGTPGQQRFWFMWNDLAIGALGAVVLIDVRRPESSFAAVDFFERRGIPFVIGVNGFHGLHPYTPEEIREALALPERAQVLLCDARERESCRDVLIALIDQLIAARLEHHHHHH | not soluble |
| MSKSICKSSMRAAVVRRFGAPDVIEAVESDMPRLEKNQVLVRNYAAGVNPVDTYIRAGQYGKLPNLPYVPGKDGAGFVELVGESVKNVKVGDRVWYGSEADSTAEYVAVNRPFELPEGVSFEEGASLGVPYLTAYRALFHLAGAKTGDVILVHGASGGVGSALMQLAAWRNIEAVGTAGSADGIRFVKSLGARNVYNHSDKQYVSKMKNDYPGGFNHIFEMAAHTNLNTDLGLLAPRGRVAVIGNRAETTINARQLMVTEGAVYGVALGMSSEAELLDFGINIVSFLKETEFRPLINKLYRLEQLGLAHEEIMNNKGAKGNLVVQIEH | not soluble |
| MGQDRGFGFPTQRLCSLSSLALSHLGKQDLNLVSKTCGDTTDMFSTRGSYQVSTQVSQSYFDGYCGWVHGSSHLQQQFLPPQNQCMKQVPLQVDGVISKAEEQCSQKRFLVFDQSGDQTTLLLASDIRKSFETLKQHACPDMKEELQRSNKDLFVCHGMQGNSEPDLKEDSEELNALLYSEDESGYCSEEDEVTSADHSPSIVVSGREDQKTFLGSYGQPLNAKKRKILETSNESMRDAESSCGSCDNTRISFLKRSKLSSNKIGEEKIFETVSLLRSVVPGEELVDPILVIDRAIDYLKSLKMEAKNREA | soluble |
| MTKNKMEAKIDELINNDPVWSSQNESLISKPYNHILLKPGKNFRLNLIVQINRVMNLPKDQLAIVSQIVELLHNSSLLIDDIEDNAPLRRGQTTSHLIFGVPSTINTANYMYFRAMQLVSQLTTKEPLYHNLITIFNEELINLHRGQGLDIYWRDFLPEIIPTQEMYLNMVMNKTGGLFRLTLRLMEALSPSSHHGHSLVPFINLLGIIYQIRDDYLNLKDFQMSSEKGFAEDITEGKLSFPIVHALNFTKTKGQTEQHNEILRILLLRTSDKDIKLKLIQILEFDTNSLAYTKNFINQLVNMIKNDNENKYLPDLASHSDTATNLHDELLYIIDHLSEL | soluble |
| MTTDQIAAFCLQLPGAREDLKWGSNRVFSVAGNKMFAILDFVDKDGGLAFKVGSELFLGYVDRPGIRPAPYLARAHWIVMARPYPMKAAELREALVRSHQLVVARLPKRQRLGLVLDA | not soluble |
| MDLICMYVFKGEESFGESIDVYGDYLIVKVGTEFLAVPKKSIKSVEDGRIVIGEFDEEEARELGRKWLEEKSKPVTLEELKSYGFGEEGE | not soluble |

From the DeepSol protein solubility set
